Source: patent US20050287542A1
Blank lines part the entries; values can stand above or below the substance they belong to.

Columns and labels:
CBP KIX variant E655A = CBP KIX variant E655A (UniProt P45481); experiment: fluorescence polarization
CBP KIX variant I657A = CBP KIX variant I657A (UniProt P45481); experiment: fluorescence polarization
CBP KIX variant I660A = CBP KIX variant I660A (UniProt P45481); experiment: fluorescence polarization
CBP KIX variant K606A = CBP KIX variant K606A (UniProt P45481); experiment: fluorescence polarization
Sequence of CBP KIX variant K606A (P45481 586-665 K606A limits assumed): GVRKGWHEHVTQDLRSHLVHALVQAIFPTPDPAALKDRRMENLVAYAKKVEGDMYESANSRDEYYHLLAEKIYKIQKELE

CBP KIX variant K662A = CBP KIX variant K662A (UniProt P45481); experiment: fluorescence polarization
Sequence of CBP KIX variant K662A (P45481 586-665 K662A limits assumed): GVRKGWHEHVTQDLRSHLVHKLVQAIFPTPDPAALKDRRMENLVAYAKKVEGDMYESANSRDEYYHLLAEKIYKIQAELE

CBP KIX variant L599A = CBP KIX variant L599A (UniProt P45481); experiment: fluorescence polarization
Sequence of CBP KIX variant L599A (P45481 586-665 L599A limits assumed): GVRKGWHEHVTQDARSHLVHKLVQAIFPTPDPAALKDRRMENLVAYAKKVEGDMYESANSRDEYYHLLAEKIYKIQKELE

CBP KIX variant L603A = CBP KIX variant L603A (UniProt P45481); experiment: fluorescence polarization
Sequence of CBP KIX variant L603A (P45481 586-665 L603A limits assumed): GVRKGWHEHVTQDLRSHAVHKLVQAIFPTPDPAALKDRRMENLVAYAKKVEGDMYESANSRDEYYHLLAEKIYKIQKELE

[1] = target: CBP KIX variant LL652-3AA (UniProt P45481); experiment: fluorescence polarization
Sequence of CBP KIX variant LL652-3AA (P45481 other isoform, or with tags, fused parts or gaps mutant limits assumed): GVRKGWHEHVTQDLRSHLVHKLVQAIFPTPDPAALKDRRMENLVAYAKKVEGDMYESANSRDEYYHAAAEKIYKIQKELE

CBP KIX variant Q661A = CBP KIX variant Q661A (UniProt P45481); experiment: fluorescence polarization
Sequence of CBP KIX variant Q661A (P45481 586-665 Q661A limits assumed): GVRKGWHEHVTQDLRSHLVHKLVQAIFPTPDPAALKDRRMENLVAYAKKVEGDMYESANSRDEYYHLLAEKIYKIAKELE

[2] = target: CBP KIX variant Y650A (Example 20) (UniProt P45481); experiment: fluorescence polarization
Sequence of CBP KIX variant Y650A (Example 20) (P45481 586-665 Y650A limits assumed): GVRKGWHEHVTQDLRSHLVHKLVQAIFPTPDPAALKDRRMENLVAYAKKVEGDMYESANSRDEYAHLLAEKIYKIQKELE

CBP KIX variant Y658A = CBP KIX variant Y658A (UniProt P45481); experiment: fluorescence polarization
Sequence of CBP KIX variant Y658A (P45481 586-665 Y658A limits assumed): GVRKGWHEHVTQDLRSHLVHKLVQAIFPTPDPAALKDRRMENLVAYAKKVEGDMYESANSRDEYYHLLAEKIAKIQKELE

CBP KIX variant Y658F = CBP KIX variant Y658F (UniProt P45481); experiment: fluorescence polarization
Sequence of CBP KIX variant Y658F (P45481 586-665 Y658F limits assumed): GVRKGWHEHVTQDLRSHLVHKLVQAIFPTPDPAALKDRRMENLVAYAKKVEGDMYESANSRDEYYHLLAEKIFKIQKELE

[3] = target: GST-KIXY650A (Y650A variant of CBP KIX) (UniProt P45481); experiment: fluorescence polarization
Sequence of GST-KIXY650A (Y650A variant of CBP KIX) (P45481 586-665 Y650A limits assumed): as the sequence (P45481 586-665 Y650A limits assumed) above

[4] = target: HisKIX (His-tagged CBP KIX domain) (UniProt P45481); experiment: fluorescence polarization at 150 µM HisKIX
Sequence of HisKIX (His-tagged CBP KIX domain) (P45481 586-672): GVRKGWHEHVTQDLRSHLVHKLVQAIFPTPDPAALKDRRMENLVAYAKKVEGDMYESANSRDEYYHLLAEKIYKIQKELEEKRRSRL

[5] = target: HisKIX (His-tagged CBP KIX domain) (UniProt P45481); experiment: fluorescence polarization at 325 µM HisKIX
[6] = target: catalytic subunit of cAMP-dependent protein kinase (PKA); experiment: cell-based or functional assay
[7] = target: endogenous CBP/p300 in HEK293 cells; experiment: cell-based or functional assay
[8] = target: full-length p300 (exogenous, CMV expression vector); experiment: cell-based or functional assay

Sequence of CBP KIX variant I657A (P45481 586-665 I657A limits assumed): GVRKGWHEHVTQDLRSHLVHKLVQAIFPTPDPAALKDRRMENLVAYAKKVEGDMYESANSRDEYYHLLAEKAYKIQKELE
Sequence of CBP KIX variant I660A (P45481 586-665 I660A limits assumed): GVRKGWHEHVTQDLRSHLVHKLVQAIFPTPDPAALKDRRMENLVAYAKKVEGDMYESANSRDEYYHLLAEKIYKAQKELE
Sequence of CBP KIX variant E655A (P45481 586-665 E655A limits assumed): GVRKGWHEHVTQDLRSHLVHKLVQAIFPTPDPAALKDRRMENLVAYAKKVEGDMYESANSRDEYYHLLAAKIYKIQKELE

Substance: KID-AB^P (full-length CREB KID domain, residues 119-148, phosphorylated), fluorescein-labelled (peptide)
Kd (CBP KIX variant E655A): 710 nM
ΔΔG against wild type CBP KIX (CBP KIX variant E655A): 0.32 kcal/mol
Kd (CBP KIX variant I657A): 1900 nM
ΔΔG against wild type CBP KIX (CBP KIX variant I657A): 0.9 kcal/mol
Kd (CBP KIX variant I660A): 270 nM
ΔΔG against wild type CBP KIX (CBP KIX variant I660A): -0.26 kcal/mol
Kd (CBP KIX variant K606A): 2300 nM
ΔΔG against wild type CBP KIX (CBP KIX variant K606A): 1 kcal/mol
Kd (CBP KIX variant K662A): 4800 nM
ΔΔG against wild type CBP KIX (CBP KIX variant K662A): 1.5 kcal/mol
Kd (CBP KIX variant L599A): 1100 nM
ΔΔG against wild type CBP KIX (CBP KIX variant L599A): 0.58 kcal/mol
Kd (CBP KIX variant L603A): 3400 nM
ΔΔG against wild type CBP KIX (CBP KIX variant L603A): 1.2 kcal/mol
Kd [1]: 2900 nM
ΔΔG against wild type CBP KIX [1]: 1.2 kcal/mol
Kd (CBP KIX variant Q661A): 930 nM
ΔΔG against wild type CBP KIX (CBP KIX variant Q661A): 0.48 kcal/mol
Kd [2]: 9400 nM
ΔΔG against wild type CBP KIX [2]: 1.8 kcal/mol
Kd (CBP KIX variant Y658A): 142000 nM
ΔΔG against wild type CBP KIX (CBP KIX variant Y658A): 3.5 kcal/mol
Kd (CBP KIX variant Y658F): 26000 nM
ΔΔG against wild type CBP KIX (CBP KIX variant Y658F): 2.5 kcal/mol
fold less stable than the wild type GST-KIX complex [3]: 15 fold

Substance: KID-B^U, fluorescein-labelled (peptide)
change in polarization [5]: 76 mP

Substance: PKI^A21C alkylated with bromoacetamide (peptide)
IC50, inhibition of PKA phosphotransferase activity [6]: > 1000 nM

The remaining lines, values ahead:

change in polarization [4]: 61 mP
Substance: KID-AB^U, fluorescein-labelled (peptide)

fold activation of Gal4 luciferase reporter in HEK293 cells, with forskolin [7]: 7.5 fold
fold activation of Gal4 luciferase reporter, with forskolin and exogenous p300 [8]: 20 fold
Substance: Gal4 DBD (residues 1-147) fusion of KID-AB (from UniProt P04386 1-147)
